T1: G9a and GLP (Homo sapiens, UniProt Q96KQ7+Q9H9B1)
T1 sequence (Q96KQ7 2-1210 limits assumed): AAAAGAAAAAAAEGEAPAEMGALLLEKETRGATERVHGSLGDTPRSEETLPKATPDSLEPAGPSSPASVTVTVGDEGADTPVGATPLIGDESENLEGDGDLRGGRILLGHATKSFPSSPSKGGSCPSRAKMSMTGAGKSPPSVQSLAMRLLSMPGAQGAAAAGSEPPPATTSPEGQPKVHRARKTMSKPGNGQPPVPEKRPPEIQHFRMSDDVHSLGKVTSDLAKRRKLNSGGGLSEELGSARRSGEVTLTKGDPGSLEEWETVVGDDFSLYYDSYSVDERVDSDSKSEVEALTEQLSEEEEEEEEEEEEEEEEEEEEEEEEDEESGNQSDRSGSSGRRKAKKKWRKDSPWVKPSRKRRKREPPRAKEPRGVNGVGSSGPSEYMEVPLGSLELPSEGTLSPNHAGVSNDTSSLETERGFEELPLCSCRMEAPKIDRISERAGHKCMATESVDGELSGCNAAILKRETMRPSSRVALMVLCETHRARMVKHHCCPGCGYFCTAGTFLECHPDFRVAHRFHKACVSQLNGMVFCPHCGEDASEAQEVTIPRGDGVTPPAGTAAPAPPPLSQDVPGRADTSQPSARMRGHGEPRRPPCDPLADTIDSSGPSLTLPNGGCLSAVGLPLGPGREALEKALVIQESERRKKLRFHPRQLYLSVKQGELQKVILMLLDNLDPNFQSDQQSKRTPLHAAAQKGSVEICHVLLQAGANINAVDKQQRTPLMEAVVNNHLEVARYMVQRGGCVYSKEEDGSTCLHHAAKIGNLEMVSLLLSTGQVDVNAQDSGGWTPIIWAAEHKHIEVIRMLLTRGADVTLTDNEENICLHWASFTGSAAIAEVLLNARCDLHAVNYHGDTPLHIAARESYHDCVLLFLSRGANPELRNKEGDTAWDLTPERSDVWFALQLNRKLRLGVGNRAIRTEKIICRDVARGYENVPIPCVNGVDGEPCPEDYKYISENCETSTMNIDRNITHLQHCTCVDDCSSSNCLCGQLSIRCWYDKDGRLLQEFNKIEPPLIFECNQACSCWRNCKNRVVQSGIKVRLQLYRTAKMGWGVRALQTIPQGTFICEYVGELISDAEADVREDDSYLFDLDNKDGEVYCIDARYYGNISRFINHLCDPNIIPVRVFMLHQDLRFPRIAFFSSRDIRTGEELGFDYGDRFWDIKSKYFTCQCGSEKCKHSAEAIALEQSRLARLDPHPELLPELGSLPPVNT
T1 sequence (Q9H9B1 2-1298 limits assumed): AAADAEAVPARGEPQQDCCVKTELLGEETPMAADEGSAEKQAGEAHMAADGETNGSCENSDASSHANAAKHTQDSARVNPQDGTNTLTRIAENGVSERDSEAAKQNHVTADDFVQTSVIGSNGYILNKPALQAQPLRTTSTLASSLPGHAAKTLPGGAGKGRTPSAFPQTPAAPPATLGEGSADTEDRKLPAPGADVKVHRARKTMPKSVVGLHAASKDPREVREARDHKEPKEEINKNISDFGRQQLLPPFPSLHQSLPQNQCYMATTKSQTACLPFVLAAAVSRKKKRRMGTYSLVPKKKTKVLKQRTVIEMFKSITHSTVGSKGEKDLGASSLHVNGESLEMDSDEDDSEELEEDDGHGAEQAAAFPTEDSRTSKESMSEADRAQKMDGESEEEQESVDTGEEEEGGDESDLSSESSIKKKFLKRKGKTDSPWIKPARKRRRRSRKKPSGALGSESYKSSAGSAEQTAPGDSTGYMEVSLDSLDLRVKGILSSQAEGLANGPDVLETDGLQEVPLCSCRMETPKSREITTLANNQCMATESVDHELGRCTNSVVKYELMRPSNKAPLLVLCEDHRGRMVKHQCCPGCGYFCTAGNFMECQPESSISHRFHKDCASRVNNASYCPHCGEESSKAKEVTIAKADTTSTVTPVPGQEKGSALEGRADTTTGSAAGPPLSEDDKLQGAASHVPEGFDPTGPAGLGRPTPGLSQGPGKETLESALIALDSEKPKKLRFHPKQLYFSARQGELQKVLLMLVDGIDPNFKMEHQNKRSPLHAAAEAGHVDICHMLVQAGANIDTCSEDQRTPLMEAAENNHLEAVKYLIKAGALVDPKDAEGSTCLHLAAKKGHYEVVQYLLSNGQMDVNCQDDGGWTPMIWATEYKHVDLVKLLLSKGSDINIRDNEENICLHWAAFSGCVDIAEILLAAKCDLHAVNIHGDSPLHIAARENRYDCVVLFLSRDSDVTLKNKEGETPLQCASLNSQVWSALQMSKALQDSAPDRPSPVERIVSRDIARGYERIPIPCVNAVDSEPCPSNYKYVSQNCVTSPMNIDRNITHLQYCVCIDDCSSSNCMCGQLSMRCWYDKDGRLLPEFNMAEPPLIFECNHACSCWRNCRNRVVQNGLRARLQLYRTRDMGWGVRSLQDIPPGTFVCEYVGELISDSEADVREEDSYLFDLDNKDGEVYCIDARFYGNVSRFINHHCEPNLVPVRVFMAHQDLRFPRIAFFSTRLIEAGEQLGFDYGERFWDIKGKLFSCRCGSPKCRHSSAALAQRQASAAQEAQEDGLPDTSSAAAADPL

B1: KIF2A (protein, UniProt O00139 1-706, looked up)
Kinesin-like protein KIF2A: MATANFGKIQIGIYVEIKRSDGRIHQAMVTSLNEDNESVTVEWIENGDTKGKEIDLESIFSLNPDLVPDEEIEPSPETPPPPASSAKVNKIVKNRRTVASIKNDPPSRDNRVVGSARARPSQFPEQSSSAQQNGSVSDISPVQAAKKEFGPPSRRKSNCVKEVEKLQEKREKRRLQQQELREKRAQDVDATNPNYEIMCMIRDFRGSLDYRPLTTADPIDEHRICVCVRKRPLNKKETQMKDLDVITIPSKDVVMVHEPKQKVDLTRYLENQTFRFDYAFDDSAPNEMVYRFTARPLVETIFERGMATCFAYGQTGSGKTHTMGGDFSGKNQDCSKGIYALAARDVFLMLKKPNYKKLELQVYATFFEIYSGKVFDLLNRKTKLRVLEDGKQQVQVVGLQEREVKCVEDVLKLIDIGNSCRTSGQTSANAHSSRSHAVFQIILRRKGKLHGKFSLIDLAGNERGADTSSADRQTRLEGAEINKSLLALKECIRALGRNKPHTPFRASKLTQVLRDSFIGENSRTCMIATISPGMASCENTLNTLRYANRVKELTVDPTAAGDVRPIMHHPPNQIDDLETQWGVGSSPQRDDLKLLCEQNEEEVSPQLFTFHEAVSQMVEMEEQVVEDHRAVFQESIRWLEDEKALLEMTEEVDYDVDSYATQLEAILEQKIDILTELRDKVKSFRAALQEEEQASKQINPKRPRAL
B2: CALD1 (protein, UniProt Q05682 1-793, looked up)
Caldesmon: MDDFERRRELRRQKREEMRLEAERIAYQRNDDDEEEAARERRRRARQERLRQKQEEESLGQVTDQVEVNAQNSVPDEEAKTTTTNTQVEGDDEAAFLERLARREERRQKRLQEALERQKEFDPTITDASLSLPSRRMQNDTAENETTEKEEKSESRQERYEIEETETVTKSYQKNDWRDAEENKKEDKEKEEEEEEKPKRGSIGENQVEVMVEEKTTESQEETVVMSLKNGQISSEEPKQEEEREQGSDEISHHEKMEEEDKERAEAERARLEAEERERIKAEQDKKIADERARIEAEEKAAAQERERREAEERERMREEEKRAAEERQRIKEEEKRAAEERQRIKEEEKRAAEERQRIKEEEKRAAEERQRARAEEEEKAKVEEQKRNKQLEEKKHAMQETKIKGEKVEQKIEGKWVNEKKAQEDKLQTAVLKKQGEEKGTKVQAKREKLQEDKPTFKKEEIKDEKIKKDKEPKEEVKSFMDRKKGFTEVKSQNGEFMTHKLKHTENTFSRPGGRASVDTKEAEGAPQVEAGKRLEELRRRRGETESEEFEKLKQKQQEAALELEELKKKREERRKVLEEEEQRRKQEEADRKLREEEEKRRLKEEIERRRAEAAEKRQKMPEDGLSDDKKPFKCFTPKGSSLKIEERAEFLNKSVQKSSGVKSTHQAAIVSKIDSRLEQYTSAIEGTKSAKPTKPAASDLPVPAEGVRNIKSMWEKGNVFSSPTAAGTPNKETAGLKVGVSSRINEWLTKTPDGNKSPAPKPSDLRPGDVSSKRNLWEKQSVDKVTSPTKV
B3: DDX3X (protein, UniProt O00571 2-662, looked up)
ATP-dependent RNA helicase …: SHVAVENALGLDQQFAGLDLNSSDNQSGGSTASKGRYIPPHLRNREATKGFYDKDSSGWSSSKDKDAYSSFGSRSDSRGKSSFFSDRGSGSRGRFDDRGRSDYDGIGSRGDRSGFGKFERGGNSRWCDKSDEDDWSKPLPPSERLEQELFSGGNTGINFEKYDDIPVEATGNNCPPHIESFSDVEMGEIIMGNIELTRYTRPTPVQKHAIPIIKEKRDLMACAQTGSGKTAAFLLPILSQIYSDGPGEALRAMKENGRYGRRKQYPISLVLAPTRELAVQIYEEARKFSYRSRVRPCVVYGGADIGQQIRDLERGCHLLVATPGRLVDMMERGKIGLDFCKYLVLDEADRMLDMGFEPQIRRIVEQDTMPPKGVRHTMMFSATFPKEIQMLARDFLDEYIFLAVGRVGSTSENITQKVVWVEESDKRSFLLDLLNATGKDSLTLVFVETKKGADSLEDFLYHEGYACTSIHGDRSQRDREEALHQFRSGKSPILVATAVAARGLDISNVKHVINFDLPSDIEEYVHRIGRTGRVGNLGLATSFFNERNINITKDLLDLLVEAKQEVPSWLENMAYEHHYKGSSRGRSKSSRFSGGFGARDYRQSSGASSSSFSSSRASSSRSGGGGHGSSRGFGGGGYGGFYNSDGYGGNYNSQGVDWWGN
B4: PRDX2 (protein, UniProt P32119 2-198, looked up)
Peroxiredoxin-2: ASGNARIGKPAPDFKATAVVDGAFKEVKLSDYKGKYVVLFFYPLDFTFVCPTEIIAFSNRAEDFRKLGCEVLGVSVDSQFTHLAWINTPRKEGGLGPLNIPLLADVTRRLSEDYGVLKTDEGIAYRGLFIIDGKGVLRQITVNDLPVGRSVDEALRLVQAFQYTDEHGEVCPAGWKPGSDTIKPNVDDSKEYFSKHN
B5: SRP14 (protein, UniProt P37108 2-136, looked up)
Signal recognition particle …: VLLESEQFLTELTRLFQKCRTSGSVYITLKKYDGRTKPIPKKGTVEGFEPADNKCLLRATDGKKKISTVVSSKEVNKFQMAYSNLLRANMDGLKKRDKKNKTKKTKAAAAAAAAAPAAAATAPTTAATTAATAAQ

Key:
G9a and GLP = target: T1, G9a and GLP; assay: Triple SILAC pull-down after UNC0638 treatment of 293T cells, DMSO/UNC0638 ratio of protein captured by 3×MBT; format: cell-based; parameters: cells were treated for 24 hours with UNC0638 at 2.5 μM or DMSO vehicle control; endogenous in cells; host or cells: HEK 293T; settings: for Relative to UNC0638 UNC Heavy / Relative to UNC0638 UNC Light: SILAC ratio DMSO/UNC0638 of protein pulled down with 3xMBT; for Relative to UNC0638 UNC Heavy: UNC0638 in heavy SILAC media; for Relative to UNC0638 UNC Light: UNC0638 in light SILAC media; for Relative to UNC0638 Average: average of UNC Light and UNC Heavy experiments;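 as to all read-outs here: mass spectrometry (Q-Exactive) SILAC quantitation, DMSO/UNC0638 ratio computed after subtracting 3×MBTD355N mutant pull-down background, only proteins with at least twofold 3×MBT over mutant signal considered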
Experimental: For UNC0638 treatments cells were treated for 24 hours with UNC0638 at 2.5 μM or DMSO vehicle control. One experiment treated cells in light media with UNC0638, the other treated cells in heavy media. Both experiments included cells in medium media treated with DMSO for negative control pull-down with 3×MBTD355N.
UNC0638 treatment experiments used a Q-Exactive mass spectrometer (ThermoFisher Scientific). A 25 cm HPLC column with 3 μm Reliasil (Orochem) was used to separate peptides over a 4 hour gradient from 0 to 75% acetonitrile. Ions were generated using a custom nanospray source flowing at 250 nL/minute. Mass spectrometry settings were 70,000 MS1 resolution, data dependent selection of up to 20 precursor ions per cycle, dynamic exclusion of 30 seconds and isolation window of 2 m/z.
For UNC0638 experiments the treated vs. untreated ratio was determined by subtracting the value from 3×MBTD355N prior to dividing values from the light and heavy channels. Only proteins showing a two-fold signal to background ratio (3×MBT/3×MBTD355N) were evaluated as potential G9a/GLP substrates.

3×MBT domain of L3MBTL1 = assay: Triple SILAC pull-down, 3xMBT/3xMBTD355N ratio (cytoplasmic, nuclear and chromatin fractions of 293T cells); format: binding, human; settings: SILAC ratio, pull-down 3xMBT vs 3xMBTD355N; for 3xMBT/D355N UNC Heavy: experiment with UNC0638 in heavy SILAC media; for 3xMBT/D355N UNC Light: experiment with UNC0638 in light SILAC media;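 as to all read-outs here: proteins quantified with MaxQuant, requiring at least two unique peptides and quantification in both label directions, normalized to the mean of proteins from a digested loading control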

Row | Molecule | Relative to UNC0638 UNC Heavy (G9a and GLP) | Relative to UNC0638 UNC Light (G9a and GLP) | Relative to UNC0638 Average (G9a and GLP) | 3xMBT/D355N UNC Heavy (3×MBT domain of L3MBTL1) | 3xMBT/D355N UNC Light (3×MBT domain of L3MBTL1) | Candidate G9a/GLP target (G9a and GLP; reduced association with 3xMBT after UNC0638 treatment)
1 | B1 | 0.23 log base 2 | 0.15 log base 2 | 0.19 log base 2 | 2.05 log base 2 | 2.33 log base 2 | –
2 | B2 | 0.29 log base 2 | 0.09 log base 2 | 0.19 log base 2 | 3.53 log base 2 | 3.50 log base 2 | –
3 | B3 | 0.25 log base 2 | 0.14 log base 2 | 0.20 log base 2 | 2.64 log base 2 | 2.58 log base 2 | –
4 | B4 | 0.43 log base 2 | 1.96 log base 2 | 1.19 log base 2 | 2.19 log base 2 | 4.01 log base 2 | ✓
5 | B5 | 0.30 log base 2 | 0.07 log base 2 | 0.19 log base 2 | 2.23 log base 2 | 2.96 log base 2 | –
